Assay: yeast display, Sf9 membrane polyspecificity reagent, FACS + sequencing; frameworks hold sequencing errors
In short: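 Nanobodies from a synthetic yeast display library (Saccharomyces cerevisiae BJ5465), induced 36–48 hours with galactose, were stained 1 hour at 4 °C with 10% biotinylated, detergent-solubilized Sf9 membrane reagent, enriched on streptavidin microbeads, then FACS-sorted. Anti-HA (expression) and streptavidin (reagent binding) fluorescence set low and high (top ~1%) gates. Polyreactivity labels come from the gate of origin. Genes were colony-PCR amplified, MiSeq 2 × 250 sequenced and filtered by CDR length.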

## QVQLVESGGGLVQAGGSLRLSCAASGGTSQGNAMGWYRQAPGKERELVAAISWSGGTTYYADSVKGRFTISRDNAKNTVYLQMNSLKPEDTAVYYCAAYRYAGRYVPYGDYDYWGQGTQVTVSS
  polyreactivity (PSR sort gate): low polyreactivity

## QDQIVESGGGLVQAGGSLRLSCASSGFTFYVYAMGWYRQAPCKERELVAAISWSGGRTYYAESVKGRFTISRDNAKNTVYLQMNSLKPEDTAVYYCAAYRYYPSYDYWGQGTQVTVSS
  polyreactivity (PSR sort gate): high polyreactivity

## QVQLVESGGGLVQAGGSLRLSCAASGGTYELYVMGWYRQAPGKERELVAAISVNGDDTYYADSVKGRITISRDNAKNTVYLQMNSLKPEDTAVYYCAAEVLGSYYLTGYDYWGQGTQVTVSS
  polyreactivity (PSR sort gate): high polyreactivity

## QVQLQESGGGLVQAGGSQRLSCAASGTITVLYKMGRFRQAPGKEREFVASINYGTSTYYADSVKGRFTLSRDSAKNTVYLQMNSLKPEDTAVYYCAAAYRWQDVYRYWGQGTQVTVSS
  polyreactivity (PSR sort gate): low polyreactivity

## QVQLVESGGGLVQAGGSLRLSCAASGIFDPNAMGWYRQAPGKERELVAAITSGGSTNYADSVKGRFTISRDNAKNTVYLQMNSLKPEDTAVYYCNADSYDEIKYGYWGQGTQVTVSS
  polyreactivity (PSR sort gate): low polyreactivity

## QVQLVESGGGLVQAGGSLRLSCAASGSIFWSYAMGWYRQAPGKERELVAAITWGCGSTNYADSVKGRFTISRDNAKNTVYLQMNSLIAEDTGVYYCATDNRYVVDYDYWGQGTQVTVSS
  polyreactivity (PSR sort gate): high polyreactivity

## QVQLVESGGGLVQAGGSLRLSCAASGRIIDTYAMGWYRQAPGKERELFASISRSDTSTSYADSVKGRFTISRDNAKNTVYLQMNCLKPEDTAVYYCNKDGVTVTNSKRYDYLGQGTQVTVSS
  polyreactivity (PSR sort gate): low polyreactivity

## QVQHVESGGGLLQAGGSLRLSSAATGSTNAMGWYRQAHGKERELVAAISRRGGSTYYADSVKGRFTISRDNAKKTVYLQMFSLKPEDTAVYYCAAPYSTFSYVYWGQGTQLTVSS
  polyreactivity (PSR sort gate): high polyreactivity

## QVQLVESGGGLVQARGSLRLSCASSGSIFGWNAMGGYRQAPGKERELVAAISSVGSTYYADSVKGRFTISRDNAKNTVYLQMNSLKPEDTAVYYCAAPVIQITDVWYDAETYPDYDYWGEGTQVTVSS
  polyreactivity (PSR sort gate): low polyreactivity

## QVQLVESGGGLVQAGGSLRLSCAASGFTFNYNAMGWYRQAPGKERELVAAISASGGTTYYADSVKGRFTISRDNAKNTVYLQMNSLKPEDTAVYYCAAPKLDDYDYWGQGTQVTVSS
  polyreactivity (PSR sort gate): low polyreactivity

## QVQLVESGGGLVQAGGSLRLSCAASGRIFRSYAMGWYREAPGKERELVAAISSGGSTNYADSVKGRFTISRDNAKNTVYLQLNSLKPEDTAVYYCAAELWAYTWYWHSDYWGQGTQVTVSS
  polyreactivity (PSR sort gate): low polyreactivity

## QVQLVESGGGLVQAGGSLRLSCAASGLIFSYYAMGWYRQAPGKERELVAAITGSGGTTYYADSVMGRFTISRDNANNTVYLQMNSLKPEDTAVYYCATPPPEVWQRWYREYDYWGQGTQVTVSS
  polyreactivity (PSR sort gate): low polyreactivity

## QVQLVESGGGLVQAGGSLRISCAASGRTFYNNAMGWYRQAPGTERELVATIHNRGGTTYYADSVKGRFTISRYNAKNTVYLLMNSLKPEDTAVYYCAKSAQRYSYRYYYWGQGTQVTVSS
  polyreactivity (PSR sort gate): high polyreactivity

## QVQLVESGGGLVQAGGSLRLSCAASGRIFYPYAMGWYRQAPGKERELVAAISRSGGSTYYADSVKGRFTISRDNAKNTVYLQMNSLKPEDTAVYYCAAEVVYFYSDAHIGYVDYEYWGQGTQVTVSS
  polyreactivity (PSR sort gate): low polyreactivity

## QVQLVESGGGLVQAGGSLRLSCAASGRTFGHYAMGLYRQAPGKERELVADITRRGGSTSYADSVKGRFTISRDNAKNTVYLQMNSLKPEDTAVYYCNKAADGSSHYDYWGQGTQVTVSS
  polyreactivity (PSR sort gate): low polyreactivity

## LVQLVETGGGLVQAGGSLRLSCAASGSVFYSYAMGWYRQAPGKERELVAAISFSGGSTYYADSVKGRFTISRDNAKNTVYLQMNSLKPEDTAVYYCNTLSADTFDYWGQGTQVTVSS
  polyreactivity (PSR sort gate): low polyreactivity

## QVQLVESGGGLVQAGGSLRLSCAASGSTFHVNAMGWYRQAPGKEREFVAAISWRTGSTYYADSVKGRFTISRDNAKNTVYLQMNSLKPEDTAVYYCAAKRSYSNYDYWGQGTQVTVSS
  polyreactivity (PSR sort gate): high polyreactivity

## QVQLVESGGGLVQAGGSLRLSCAASGLTLDPYAMGWSRQAPGKERELVAAISWSGGGTTYADSVKGRFTISRDNAMNTVYLQMNSLKPEDTAVYYCAAAAPHLSAKMDYWGQGTQVTVSS
  polyreactivity (PSR sort gate): low polyreactivity

## QVHLVESGGGLVQAGGSLRLSCAASRSTFVNYAMGWYRQAPGKERELVAGISRSGGSTYYADSVKGRFTISRDNAKNTVYLQMNSLKPDDTAVYYCAKRYGRLTRYDYWGQGTQVNVSS
  polyreactivity (PSR sort gate): high polyreactivity

## QVQLVESGGGLVQAGGSLRLSCASSGSTFNRYAMVWYRQAPGKERELVAAISGSGSSTYYADSVKGRFTISRDNAKNTVYLQMNSLKPEDNAVYYCAAVRYHKFREYNSWGQGTQVTVSS
  polyreactivity (PSR sort gate): high polyreactivity

## QVQLQESGGGLVQAGGSLRLSCAASGSIFEELDMGWYRQAPGKEREFVAAIGTGSTTYYADSVKGRFTISRDNAKNTVYLQMNSLKPEDTAVYYCAVDTWARAYLGYWGQGTQVTVSS
  polyreactivity (PSR sort gate): high polyreactivity

## QVQLVESGGGLVQAGGSLRLSCAASGRIFDRYAIGWYRHAPGKERELVAAITSGGDTNYADSVKGRFTISRDNAKITVYLPKNSLKPEDTAVYYCNTRLVLGGGRRHDYWGQGTQVTVSS
  polyreactivity (PSR sort gate): low polyreactivity

## QVQLVESGGVLVQAGGSLRLSCAASGRIIDLNAMGWYREAPGKQRDFVAGITDGGSTYYADSVKGRFTISRDNAKNTVYLQMNSLKPEDTAVDYCAADVYDYLSEFQAFVEEAGYYWGQGTQVTVSS
  polyreactivity (PSR sort gate): low polyreactivity

## QVQHVESGGGLVQAGGSLRLSCAASGGIFRFYAMGWYRQAPGKERELVARITSSGGGTYYADSVKGRFTISRDNAKNTVYLQMNSLKPEDTAVSYCAALVYSSYPAGWYDYWGQGTQVTVSS
  polyreactivity (PSR sort gate): high polyreactivity

## QVQLVESGGGLVQAGGSIRLSCAASGSTFDYYAMGWYRQAPGKDRELVAAITTSGSSTFYADSVKGRFTIARDNAKNTVYVQMNSLKPEDTADYYCAAVFRWARQRWLDYWGQGTQVTVSS
  polyreactivity (PSR sort gate): high polyreactivity

## QVQLVESGGGLVQAGGSLRLSCAASGNIFAIYAMGWYIQAPGKEREFVAAIDWSVASTYYADSVKGRFTISRDNAKNTVYLQMNSLKPEDTAVYYCAAELYGLKYAYYLSYDYWGQGTQVTVSS
  polyreactivity (PSR sort gate): high polyreactivity

## QVQLVESGGGLVQAGGSLRLSCAASGITFDLYDMGWYRQAPGKERDFVAAITDADSTYYADSVKGRFTISRDNAKNTVYLQMNSLKPEDTAVYYCAADFFYSVYSGHYDYWGQGTQVTVSS
  polyreactivity (PSR sort gate): low polyreactivity

## QVQLVESGGGLDQAGGSLRLSCADSGSTFGLYAMGWYRQAPGKETELVAVISWRGGSTYYADSVKGRFTISRDNAKITVYFQMNSLKPEDTAVYYCAAYCLYPYVRYDYWGLGTQVTVSS
  polyreactivity (PSR sort gate): low polyreactivity

## QVQLVESGGGLVQAGGSLRLSCAASGFIFDWNTMGWYRQAPGKERELVAAITESSGSTYYADSVKGRFTISRDNAKNTVYLQMNSLKPEDTAVYDCAADFSYVYYLYDYWGQGTQVTVSS
  polyreactivity (PSR sort gate): low polyreactivity

## QVQLVESGGGLVQAGGSLRLSCAASGLILSSNARGWYRQAPGKETELVAAITWDGDRTYADSVKGRFTISRDNAKNTVYLQMNSLKPEDTAVYYCAAYPYYYYGYDYWGQGTQVTVSS
  polyreactivity (PSR sort gate): low polyreactivity

## QVQLVESGGGLVQAGGSLRLSCAASGFTFEIYAMGWYSQAPGKVRELVAAISKSGGSTYYADSVKGRFTISRDNAKKRVYLQMNSLKPEDSSVYSCAARYKALYDYWGQGTQVTVSS
  polyreactivity (PSR sort gate): high polyreactivity

## QVQLVESGGGLVQAGGSLRLSCAASGSIFPWNTMGWYRQAPGKERELVARISTSGASTYYADSVKGRFTISRDNAKNTVYLQMNSLKPEDTAVYYCAARKRPFYKYDYWGQGTQVTVSS
  polyreactivity (PSR sort gate): high polyreactivity

## QVQLVESGGGLVQAGGSLRLSCAASGGIFWTYAMGWYRQAPWKERELVATITSGGSTNYADSVKGRFTISRDNAKNTVYLQMNSLKPEDTAVYYCNADWWWGYGYWGQGTQVTVSS
  polyreactivity (PSR sort gate): low polyreactivity

## QVQLVESGGGLVQAGGSLRLSCAASGRTFLYYAMGWDRPAPGKERELVAAITRGGGSTYYADSVKGRFTISRDNAKNTVYLPMNSLKPEDTAVYYCAVEYRVDYYVEYDYWGQGTQVTVSS
  polyreactivity (PSR sort gate): high polyreactivity

## QVQLVESGGGLVQAGGSLRLSCAASGFIFGLYDMGWYRQAPGKERELVARISWGGGTYYADSVKGRFTISRDNAKNTVYLQMNSLKPEDTAVYYCNTRTRGYYYNSYYWTKYGYWGQGTQVTVSS
  polyreactivity (PSR sort gate): high polyreactivity

## QVQLVESGGGLVQAGGSLRLSCAASGRILRRNTMGWYRQAPGKERELVATITRGGGNTYADSVKGRFTISRDNAKNTVYLQMNSLKPEDTAVYYCARAYGSYDYWGQGTQVTVSS
  polyreactivity (PSR sort gate): high polyreactivity

## QVQLVESGGGLVQAGGSLRLSCAASGRTFRYYVMGWYRQAPGKERELVADISRGGGRTRYADSVKGRFTISRDNAKNTVDLQMNSLKPEDTAVYYCAARSYTGQFGYWGQGTQVTVSS
  polyreactivity (PSR sort gate): high polyreactivity

## QVQLVESGGGLVQAGGSLRLSCAASGSIFTQYAMGWYRQAPGKERELVARITGSGGRTYYADSVKGRFTISRDNAKNTVYLQMNSLKPEDTAVYYCAARDVRPYYVKPPVRYYYWGQGTQVTVSS
  polyreactivity (PSR sort gate): high polyreactivity

## QVQLVESGGGLVQAGGSLRLSCAASGSTVGSNAMGWYRQAPGKERELVAAISSDGSTNYADSVKGRFTISRDNAKNTVSLQMNSLKPEETAVYYCKAVVQDADWGYDYWGQGTQVTLSS
  polyreactivity (PSR sort gate): low polyreactivity

## QVQLVETGGGLVQAGGSLRLSCAASGIIFSRYAMGWYRQAPGKERELVAAISTSGGRTFYADSVKGRFTISRDNAKNTVYLQMNSLKPEDTAVYYCAVDDLGWTTGGYLYLYGYWGQGTQVTVSS
  polyreactivity (PSR sort gate): high polyreactivity

## QVQLVESGGGLVQAGGSLRLSFAASGLTFHYYAMGWYIQEPGKERELVAVISSGGSTYYAYSVKGRFTISRDNAKNTVYLQMNSLKPEDTAVYYCAALSSRTYKTGYYTYDYWGQGTQVTVSS
  polyreactivity (PSR sort gate): low polyreactivity

## QVQLVESGGGLVQAGGSLRLSCADSGSILIHYTMGWYRQEPGKERELVAAISSTGGSTYYADSVKGRFTISRDNAKNTVYLQMNSLKPEDTAVYYCATGPHQPPYSYLDYDYWGQGTQVTVSS
  polyreactivity (PSR sort gate): low polyreactivity

## QVQLVESGGGLVQAGRSHRLSCAASGFTFAPNAMGWYRQAPGKERELVARIDRAGSTYYADSVKGRFTISRDNAKNTVYLQMNSLKPEVTAVYYCAVVAVLSRPYATKFDYWGQGTQVTVSS
  polyreactivity (PSR sort gate): low polyreactivity

— the nanobody polyreactivity screen of Harvey et al. (2022)
